PMC6895277
Read-outs that look alike come from different tables or passages of the source.

Key:
[1] = test system: T1, VEGF165 (human), P15692-4; assay: SPR; details: biotin-dT at T54, SPR: 1x PBS (1 mM KH2PO4, 3 mM Na2HPO4, 155 mM NaCl; 205 mM NaCl for IFNγ), pH 7.4, 0.05% Nonidet P-40, 25°C, EMSA: 1x PBS, 0.05% NP-40, 25°C, 25 nM DNA, 50 nM …
T1 sequence: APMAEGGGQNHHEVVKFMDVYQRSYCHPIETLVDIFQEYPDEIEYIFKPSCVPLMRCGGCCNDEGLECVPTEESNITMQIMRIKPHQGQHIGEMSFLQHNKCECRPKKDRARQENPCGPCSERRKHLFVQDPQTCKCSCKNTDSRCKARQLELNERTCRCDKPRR

IFNγ (human) [2] = target: T2, IFNγ (human) (UniProt P01579); details: N28 and N39 = Ds; biotin-dT at T53; SPR: 1x PBS (1 mM KH2PO4, 3 mM Na2HPO4, 155 mM NaCl; 205 mM NaCl for IFNγ), pH 7.4, 0.05% Nonidet P-40, 25°C; EMSA: 1x PBS, 0.05% NP-40, 25°C, 25 nM DNA, 50 nM …; cited from earlier work
T2 sequence: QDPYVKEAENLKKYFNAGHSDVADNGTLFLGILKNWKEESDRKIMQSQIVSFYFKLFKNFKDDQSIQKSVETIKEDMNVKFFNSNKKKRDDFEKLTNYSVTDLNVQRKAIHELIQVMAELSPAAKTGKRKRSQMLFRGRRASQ

IFNγ (human) [3] = target: T2, IFNγ (human); assay: SPR; details: biotin-dT at T53, SPR: 1x PBS (1 mM KH2PO4, 3 mM Na2HPO4, 155 mM NaCl; 205 mM NaCl for IFNγ), pH 7.4, 0.05% Nonidet P-40, 25°C, EMSA: 1x PBS, 0.05% NP-40, 25°C, 25 nM DNA, 50 nM …
[4] = test system: T1, VEGF165 (human), P15692-4; details: N25 and N34 = Ds (7-(2-thienyl)imidazo[4,5-b]pyridine); biotin-dT at T54; SPR: 1x PBS (1 mM KH2PO4, 3 mM Na2HPO4, 155 mM NaCl; 205 mM NaCl for IFNγ), pH 7.4, 0.05% Nonidet P-40, 25°C; EMSA: 1x PBS, 0.05% NP-40, 25°C, 25 nM DNA, 50 nM …; cited from earlier work

## GCGGTAAGCCGCGTCCGAAGGGGCATGCGGCGAACCCGAATGGGTCCGCCGCGTAGCG [V-Apt4 (AA)]
[1]
  Kd: 160 pM

## CCCGCCCGGGTCCGCGAAGCGGTAGGTNTGGGCTAGGCNGCTGGCGGGCGCGTAGCG [I-Apt1 (DD)]
IFNγ (human) [2]
  Kd: 33 pM
IFNγ (human) [3]; N28 and N39 = Ds
  Kd: 13 pM

## GCGGTAAGCCGCGTCCGAAGGGGCNTGCGGCGAACCCGAATGGGTCCGCCGCGTAGCG [V-Apt3 (DA)]
[1]; N25 = Ds
  Kd: 58 pM

## GCGGTAAGCCGCGTCCGAAGGGGCATGCGGCGANCCCGAATGGGTCCGCCGCGTAGCG [V-Apt2 (AD)]
[1]; N34 = Ds
  Kd: 2 pM

## CCCGCCCGGGTCCGCGAAGCGGTAGGTATGGGCTAGGCAGCTGGCGGGCGCGTAGCG [I-Apt4 (AA)]
IFNγ (human) [3]
  Kd: 16000 pM

## GCGGTAAGCCGCGTCCGAAGGGGCNTGCGGCGANCCCGAATGGGTCCGCCGCGTAGCG [V-Apt1 (DD)]
[4]
  Kd: 1 pM
[1]; N25 and N34 = Ds (7-(2-thienyl)imidazo[4,5-b]pyridine)
  Kd: 1.6 pM
